Experimental data from the supplement of paper PMC9112550, “Optimization of the antimicrobial peptide Bac7 by deep mutational scanning” (BMC Biology, 2022).

system: Escherichia coli TOP10; experiment: shrunken log2 fold change of peptide-encoding DNA abundance (4.5 h post-induction vs induction); higher = less antimicrobial activity (less host growth inhibition); conditions: time post-induction: 4.5 h; library: site-saturation at positions 5, 18, 19, 20
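Also: peptides expressed intracellularly from a pBAD plasmid library in pooled LB shake-flask culture, induced with 0.3% L-arabinose, DNA abundance read by NGS, three biological replicates, DESeq2 with apeglm shrinkage.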

Row | Sequence | shrunken log2 fold change
1 | RRIRDRPPRLPRPRPRPQLCPRP | 0.365
2 | RRIRDRPPRLPRPRPRPQLDPRP | 0.207
3 | RRIRDRPPRLPRPRPRPQLTPRP | 0.0489
4 | RRIRDRPPRLPRPRPRPQLWPRP | 0.92
5 | RRIRDRPPRLPRPRPRPQMHPRP | 0.156
6 | RRIRDRPPRLPRPRPRPQNRPRP | -0.28
7 | RRIRDRPPRLPRPRPRPQNYPRP | -0.589
8 | RRIRDRPPRLPRPRPRPQPMPRP | -0.0809
9 | RRIRDRPPRLPRPRPRPQREPRP | -0.0375
10 | RRIRDRPPRLPRPRPRPQRGPRP | 0.0499
11 | RRIRDRPPRLPRPRPRPQTDPRP | -0.0328
12 | RRIRDRPPRLPRPRPRPQVGPRP | 0.132
13 | RRIRDRPPRLPRPRPRPQVIPRP | -0.0205
14 | RRIRDRPPRLPRPRPRPQVQPRP | -0.0379
15 | RRIRDRPPRLPRPRPRPQVYPRP | 0.175
16 | RRIRDRPPRLPRPRPRPQWNPRP | -0.37
17 | RRIRDRPPRLPRPRPRPQYKPRP | -0.121
18 | RRIRDRPPRLPRPRPRPQYSPRP | -0.028
19 | RRIRDRPPRLPRPRPRPRAAPRP | 0.609
20 | RRIRDRPPRLPRPRPRPREWPRP | -0.00146
21 | RRIRDRPPRLPRPRPRPRFEPRP | 0.0618
22 | RRIRDRPPRLPRPRPRPRFLPRP | -0.201
23 | RRIRDRPPRLPRPRPRPRFPPRP | 1.75
24 | RRIRDRPPRLPRPRPRPRFTPRP | 0.21
25 | RRIRDRPPRLPRPRPRPRGCPRP | 0.786

Row | Sequence | shrunken log2 fold change
26 | RRIRDRPPRLPRPRPRPRGYPRP | 0.03
27 | RRIRDRPPRLPRPRPRPRHRPRP | 0.375
28 | RRIRDRPPRLPRPRPRPRHVPRP | 0.153
29 | RRIRDRPPRLPRPRPRPRIAPRP | 0.114
30 | RRIRDRPPRLPRPRPRPRIDPRP | 0.0784
31 | RRIRDRPPRLPRPRPRPRIGPRP | -0.00724
32 | RRIRDRPPRLPRPRPRPRIRPRP | -0.0469
33 | RRIRDRPPRLPRPRPRPRKHPRP | -0.134
34 | RRIRDRPPRLPRPRPRPRKNPRP | 0.244
35 | RRIRDRPPRLPRPRPRPRMHPRP | -0.268
36 | RRIRDRPPRLPRPRPRPRPAPRP | 0.966
37 | RRIRDRPPRLPRPRPRPRPEPRP | 0.538
38 | RRIRDRPPRLPRPRPRPRPWPRP | 0.25
39 | RRIRDRPPRLPRPRPRPRRAPRP | 0.691
40 | RRIRDRPPRLPRPRPRPRSRPRP | 0.00639
41 | RRIRDRPPRLPRPRPRPRTIPRP | -0.018
42 | RRIRDRPPRLPRPRPRPRTTPRP | 0.0893
43 | RRIRDRPPRLPRPRPRPRTVPRP | -0.142
44 | RRIRDRPPRLPRPRPRPRVCPRP | 0.372
45 | RRIRDRPPRLPRPRPRPRVDPRP | 0.325
46 | RRIRDRPPRLPRPRPRPRWKPRP | 0.0064
47 | RRIRDRPPRLPRPRPRPRWMPRP | -0.176
48 | RRIRDRPPRLPRPRPRPRYEPRP | 0.223
49 | RRIRDRPPRLPRPRPRPSAEPRP | 0.162
50 | RRIRDRPPRLPRPRPRPSAPPRP | 0.0189

Row | Sequence | shrunken log2 fold change
51 | RRIRDRPPRLPRPRPRPSDGPRP | 0.166
52 | RRIRDRPPRLPRPRPRPSEFPRP | -0.0277
53 | RRIRDRPPRLPRPRPRPSETPRP | -0.0751
54 | RRIRDRPPRLPRPRPRPSFEPRP | 0.495
55 | RRIRDRPPRLPRPRPRPSFGPRP | -0.0644
56 | RRIRDRPPRLPRPRPRPSGEPRP | 0.0799
57 | RRIRDRPPRLPRPRPRPSGFPRP | 0.029
58 | RRIRDRPPRLPRPRPRPSGNPRP | 0.499
59 | RRIRDRPPRLPRPRPRPSHCPRP | -0.29
60 | RRIRDRPPRLPRPRPRPSHDPRP | -0.339
61 | RRIRDRPPRLPRPRPRPSHWPRP | -0.178
62 | RRIRDRPPRLPRPRPRPSIDPRP | -0.145
63 | RRIRDRPPRLPRPRPRPSIPPRP | -0.43
64 | RRIRDRPPRLPRPRPRPSKHPRP | -0.263
65 | RRIRDRPPRLPRPRPRPSKIPRP | -0.381
66 | RRIRDRPPRLPRPRPRPSMPPRP | -0.164
67 | RRIRDRPPRLPRPRPRPSNLPRP | -0.0257
68 | RRIRDRPPRLPRPRPRPSNPPRP | -0.281
69 | RRIRDRPPRLPRPRPRPSPCPRP | -0.0819
70 | RRIRDRPPRLPRPRPRPSPNPRP | 0.122
71 | RRIRDRPPRLPRPRPRPSPTPRP | -0.0251
72 | RRIRDRPPRLPRPRPRPSQCPRP | -0.034
73 | RRIRDRPPRLPRPRPRPSRLPRP | 0.0232
74 | RRIRDRPPRLPRPRPRPSRYPRP | -0.219
75 | RRIRDRPPRLPRPRPRPSTQPRP | 0.445
